Source: paper PMC11236707, “dsRNA formation leads to preferential nuclear export and gene expression”

Experiments:
[1] = target: T1, Mex67 (in Mex67-Mtr2 heterodimer);Mtr2 (in Mex67-Mtr2 heterodimer) (Saccharomyces cerevisiae;Saccharomyces …, UniProt Q99257;P34232 1-599;1-184, |); test: EMSA; 4 uM RNA; full upshift at 2-fold, saturated at 5-fold molar excess; 30 mM HEPES-KOH, 160 mM KCl, pH 7.6, Ribolock, 30 C 15 min; 4 uM RNA with 4-44 uM Mex67-Mtr2 (competition 3 uM RNA, 12 uM protein); 0.5% agarose, 1x TAE pH 9.5, 4 C; details: protein: recombinant;recombinant; HisFF purification;; copies: 1;1; label: FAM; single strand
T1 sequence 1: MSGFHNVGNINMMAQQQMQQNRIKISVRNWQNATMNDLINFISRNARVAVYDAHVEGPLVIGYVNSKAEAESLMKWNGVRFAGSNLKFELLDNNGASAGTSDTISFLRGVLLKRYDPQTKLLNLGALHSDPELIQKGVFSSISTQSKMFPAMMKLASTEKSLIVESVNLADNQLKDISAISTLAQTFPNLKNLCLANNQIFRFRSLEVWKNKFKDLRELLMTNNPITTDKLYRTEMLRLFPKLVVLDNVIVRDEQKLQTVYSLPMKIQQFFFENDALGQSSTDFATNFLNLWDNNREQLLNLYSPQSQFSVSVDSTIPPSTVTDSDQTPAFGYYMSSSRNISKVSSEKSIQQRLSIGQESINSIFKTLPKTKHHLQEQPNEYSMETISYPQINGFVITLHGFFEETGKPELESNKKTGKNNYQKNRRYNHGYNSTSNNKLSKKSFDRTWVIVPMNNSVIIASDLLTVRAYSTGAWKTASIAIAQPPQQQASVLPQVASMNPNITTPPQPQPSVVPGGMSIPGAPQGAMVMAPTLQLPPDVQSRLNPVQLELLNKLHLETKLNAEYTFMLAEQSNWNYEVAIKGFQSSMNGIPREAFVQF
T1 sequence 2: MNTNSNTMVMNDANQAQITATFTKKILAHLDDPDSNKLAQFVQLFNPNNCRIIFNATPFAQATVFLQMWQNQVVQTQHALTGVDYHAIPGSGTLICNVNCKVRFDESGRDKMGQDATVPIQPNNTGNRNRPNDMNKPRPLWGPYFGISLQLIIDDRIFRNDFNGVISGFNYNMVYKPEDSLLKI

[2] = target: T1, Mex67 (in Mex67-Mtr2 heterodimer);Mtr2 …; test: EMSA; 4 uM RNA; full upshift at 3-fold, saturated at 10-fold molar excess; 30 mM HEPES-KOH, 160 mM KCl, pH 7.6, Ribolock, 30 C 15 min; 4 uM RNA with 4-44 uM Mex67-Mtr2 (competition 3 uM RNA, 12 uM protein); 0.5% agarose, 1x TAE pH 9.5, 4 C; details: protein: recombinant;recombinant; HisFF purification;; copies: 1;1; label: FAM on one strand; blunt
[3] = target: T1, Mex67 (in Mex67-Mtr2 heterodimer);Mtr2 …; test: competition; N4 added to complex preformed on N1; labels switched, same effect; 30 mM HEPES-KOH, 160 mM KCl, pH 7.6, Ribolock, 30 C 15 min; 4 uM RNA with 4-44 uM Mex67-Mtr2 (competition 3 uM RNA, 12 uM protein); 0.5% agarose, 1x TAE pH 9.5, 4 C; details: protein: recombinant;recombinant; HisFF purification;; copies: 1;1; label: Cy5 on one strand; blunt

UUUUUUUUAUUGCCUGGUUGCCUGGUUAUUUCUAUU (ssRNA) [36-nt ssRNA, FAM]
binding result [1]: binds

B1: 36-bp dsRNA, FAM (dsRNA)
RNA 1: UUUUUUUUAUUGCCUGGUUGCCUGGUUAUUUCUAUU
RNA 2: AAUAGAAAUAACCAGGCAACCAGGCAAUAAAAAAAA
binding result [2]: binds

B2: 36-bp dsRNA, Cy5 (dsRNA)
RNA 1: UUAUAUGUCUUGUUCUCUUGUAUCUGUUCUUGUUGU
RNA 2: ACAACAAGAACAGAUACAAGAGAACAAGACAUAUAA
binding result [3]: binds
